B1: RPAIN (parent)
chain: ISEYEKSLQFDEKCLSIMLAEWEA
B2: GALNT9 (parent)
chain: FTQSGPIVSRATGRCLEVEMSKDA

Variants of: B1
Experiment: protein stability index of a GFP-peptide fusion (GPS, HEK-293T) (PSI 1-6); higher = more stable
Details: c terminus: a fixed tail appended
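Further: lentivirally expressed fusions sorted by FACS into six bins by GFP to DsRed ratio, PSI derived from sequencing read proportions per bin multiplied by bin number.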

Protein stability index of substitutions, site by site:
K6: Q 2.06, G 1.15, W 1.79, A 2.2, H 1.97, V 1.16, S 1.34, D 2.07, C 2.67, L 1.2, T 1.92, R 2.39, E 1.78, M 1.73, N 1.91
E3: S 1.68, G 1.41, T 2.91, W 3.76, R 2.4, P 1.42, N 3.69, L 1.54, D 1.81, C 1.44, H 1.99, A 2.31, V 2.93, M 1.82, Y 3.23, Q 2.05, I 1.74, K 2.4
D11: G 2.15, R 1.77, H 1.68, A 2.17, T 1.87, K 1.95, S 2.29, P 1.99, L 3.63, N 2.45
L8: A 2.63, D 3.69, Q 3.1, G 3.44, N 2.71, P 2.97, S 2.68, F 1.9, M 2.29, Y 2.27, C 1.96, T 3.08, R 2.38, W 2.9, H 2.65, E 3.45, V 2.22, K 2.47, I 2.79
F10: T 3.01, R 2.96, A 3.21, V 2.45, Q 3.51, D 3.15, N 2.9, P 3.43, H 3.33, L 2.07, S 3.08, I 2.93, Y 1.97, E 3.47, M 2.45, K 3.53, C 2.99, G 2.81, W 2.88
S2: W 2.59, L 2.1, Q 1.81, H 1.5, P 2.04, M 2.15, C 1.41, A 2.2, E 1.16, G 1.72, D 1.97, Y 2.54, T 1.91, F 1.7, I 1.79, N 2.18
E12: N 2.47, I 1.67, P 1.76, A 2.34, G 2.27, S 1.92, M 1.66, F 1.99, D 2.17, K 1.75, R 2.33, H 2.02, C 1.9, T 1.67, Y 1.33, V 1.26, Q 1.98, W 1.85
L15: E 4.41, P 4.02, F 2.21, M 2.2, R 4.1, A 3.74, T 3.73, H 3.17, C 2.66, K 4.06, N 3.92, I 3.52, Y 3.38, D 4.09, G 3.62, W 2.86, Q 3.73, V 2.09, S 3.92
I1: V 2.15, S 1.8, Y 1.48, A 2.29, F 1.34, E 2.04, K 2.56, T 3.12, H 2.15, Q 2.64, L 1.64, R 2.41, M 2.42, W 1.26, D 2.6, G 1.86, N 1.69, P 2.04
E5: T 1.58, Y 2.3, I 1.75, N 1.51, V 2.51, L 2.02, S 1.82, K 2.81, D 1.55, Q 1.92, C 2.24, R 1.32, W 1.23, M 2.08, P 2.33
S16: A 2.32, C 1.91
Y4: A 2.48, D 2.12, N 2.15, G 1.83, P 1.41, E 2.13, H 2.06, W 1.92, S 1.77, I 2.15, K 2.1, C 1.75, L 2.33, T 2.5, F 1.86, Q 1.8, M 2.15
K13: E 1.71, T 1.44, M 1.34, S 2.25, G 1.8, V 1.7, F 1.91, Y 3.37, P 2.72, D 1.76, R 2.05, Q 1.47, N 1.19, A 2.1, H 1.73
Q9: T 1.86, N 2.32, H 1.85, A 1.76, L 1.46, M 2.03, K 2.23, P 1.95, S 1.7, R 2.08, C 1.64, F 2.88, V 1.25, Y 1.58, E 1.78, D 2.02, I 1.96
C14: A 1.9, S 1.89, F 2.38, K 1.59, W 1.35, Q 2.24, G 2.27, L 1.44, R 2.32, N 1.96, D 2.16, T 1.71, H 2.81, M 1.58, I 2.16, Y 1.16, P 3.42, V 1.75
S7: F 2.08, H 2.7, I 1.6, N 1.8, M 1.56, C 2.46, R 1.69, E 1.48, W 2, G 1.67, L 1.44, D 1.93, P 1.47, Y 1.76, K 1.38, Q 2.13

Variants of: B2
Experiment: as above
Details: c terminus: a fixed tail appended

Protein stability index, by site and new letter:
D23: P 1.92, E 2.44, L 2.07, V 2.02, Y 2.52, G 1.79, N 2.42, Q 1.95, H 2.3, K 1.84, I 1.57, S 2.67, T 1.84, C 1.51
S21: P 2.55, C 1.47, V 2.05, E 2.71, H 1.76, D 1.63, I 1.07, N 1.79, T 2.15, L 1.74, G 1.21, F 1.86, K 1.82, R 3.38, Q 1.34
M20: F 1.93, K 2.32, I 2.28, L 3.75, C 1.89, A 3.61, V 2.18, H 2.65, Y 2.46, S 3.05, P 3.38, G 3.21, D 4.53, R 2.73, W 1.55, N 3.34, E 3.66, Q 3.23, T 3.24
A24: M 1.51, T 2.3, F 1.34, H 2.43, P 3.19, N 2.78, E 2.64, I 1.89, L 2.35, Y 1.75, R 2.2, V 1.68, C 2.34, D 2.51
K22: H 1.76, N 2.74, R 1.32, Q 2.26, C 2.56, A 3.13, S 2.12, G 2.7, Y 2.62, P 3.13, D 3.38, I 1.71, L 1.95
E19: S 1.35, R 3.07, V 1.45, N 1.62, T 1.22, P 2.57, Y 1.53
